The source of these data is patent US20150307617A1.

Assay [1] addresses human OX40 expressed on transfected BT-474 cells (fusion with 5' HSV glycoprotein D tag) (human) (UniProt P43489). Description: flow cytometry, ACT35-PE staining of the BT474-human OX40-high clone.
The target is the same in assay [2]. The assay can be described thus: flow cytometry, ACT35-PE staining of the BT474-human OX40 low clone. A general note: A flow cytometer gives signals particle by particle.

Chain of human OX40 expressed on transfected BT-474 cells (fusion with 5' HSV glycoprotein D tag) (human) (P43489 29-277): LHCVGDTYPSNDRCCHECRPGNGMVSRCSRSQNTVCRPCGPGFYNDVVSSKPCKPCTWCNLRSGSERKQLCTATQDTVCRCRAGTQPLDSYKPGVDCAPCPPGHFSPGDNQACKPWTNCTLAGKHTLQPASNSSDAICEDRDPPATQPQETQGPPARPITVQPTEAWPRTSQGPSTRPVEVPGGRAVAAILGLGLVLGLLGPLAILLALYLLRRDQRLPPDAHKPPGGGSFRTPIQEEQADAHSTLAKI

Take “anti-human OX40 (PE) (clone ACT35) (antibody)”: the values for the MFI in assay [1] and in assay [2] were 5240 MFI and 994 MFI, respectively.
